Target: AtCYT6-CTD (C-terminal cystatin domain of phytocystatin 6) (UniProt Q8H0X6)
Experiment: Enzyme inhibition kinetics
Conditions: pH 5.5; 25 °C; 100 mM NaCl; 20 mM citric acid pH 5.5

Chain of UniProt Q8H0X6 (Q8H0X6 whole entry, the tested form may be a part): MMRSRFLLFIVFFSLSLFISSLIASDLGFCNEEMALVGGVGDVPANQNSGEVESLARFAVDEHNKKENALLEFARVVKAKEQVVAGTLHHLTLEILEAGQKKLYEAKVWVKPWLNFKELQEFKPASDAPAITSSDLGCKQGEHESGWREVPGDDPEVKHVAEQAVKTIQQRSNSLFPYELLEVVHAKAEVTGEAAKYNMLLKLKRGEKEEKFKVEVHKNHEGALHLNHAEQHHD

Ki: 0.61 ± 0.23 nM
Substance: AtLEGβ (legumain isoform β, vacuolar processing enzyme β), activated catalytic domain

From publication doi:10.1101/2023.05.22.541692
